Measurements from PMC12684077 (Cell, 2025).

Target: RSV prefusion F (PR-DM) (Human respiratory syncytial virus A, …, stabilised)
Assay: cryo-EM structure

| Binder | stoichiometry N |
| --- | --- |
| RSV-3301 Fab (Fab, V domains shown) VH: QVQLVESGPTLVKPTQTLTLTCSFSGFSLSTRGVGVGWVRQPPGKALECLGFTYWDGDEYYSPSLRNRVTISKDTSKNQVVLTLTNMDPVDTATYFCVHSDLYDRGGYYLYYFDYWGQGTLVTVSS VL: DIRVTQSPSSLSASVGDRVTITCRASQTIASYVNWYQQKPGRAPELLIYAASILQSGVPSRFSGRGSGTDFTLTINGLQPEDFATYYCQQSYSSPWTFGQGTKVEIK | 3 copies of the Fab per F trimer |
| RSV-2245 Fab (Fab, V domains shown) VH: QVQLVQSGAEVKKPGASVKVSCKASGYSFSSFGVSWVRQAPGQGLEWLGWISAYNGNTDYAQKVQGRLTMTTDTSTNTAYMELRNLRSDDTAVYYCARDPPASAAAMFDYWGQGTLVTVSS VL: not shown | 3 copies of the Fab per F trimer |
